The values that follow come from patent US20260374871 (published 2026).

This assay concerns the target human CTLA-4 (human, UniProt P16410). The experiment in a line: BLI.

Sequence of human CTLA-4 (P16410 36-161): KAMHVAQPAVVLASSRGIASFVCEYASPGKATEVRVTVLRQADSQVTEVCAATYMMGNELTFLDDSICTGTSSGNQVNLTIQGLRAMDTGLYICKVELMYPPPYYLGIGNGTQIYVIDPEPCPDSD

B1: GBD008-hS005 (designed binder)
chain: QVQLVESGGGLVEAGGSLRLSCATSGRTASSNAMAWFRQAPGKEREFVAAISATGGLTAYADSVKGRFTISRDNSKNAVYLQMNTLKPEDTAVYIGAVGRERWYLRHTENEYDYWGRGAQVTVSS
On to B1, for which the Kd was 0.269 nM.

B2: GBD008-hS005-5 (designed binder)
chain: EVQLVESGGGLVQPGGSLRLSCAASGRTASSNAMAWFRQAPGKEREFVSAISATGGLTAYADSVKGRFTISRDNSKNTLYLQMNSLRAEDTAVYIGAVGRERWYLRHTENEYDYWGQGTLVTVSS
On to B2, for which the Kd is 0.155 nM.

In general, Kd refers to the free concentration of one partner at which half of the binding sites on the other are occupied at equilibrium, for simple one-to-one binding.
